Substrate in data set [1]: Nc1ccn(C[C@@H](CO)OCP(=O)(O)O)c(=O)n1
Put plainly: cells, lysate or membranes named.

Substrate in data set [2]: Nc1ncnc2c1ncn2CCOCP(=O)(O)O
Briefly: TP_TRANSPORTER: uptake in OAT1-expressing CHO cells. In kind it is functional, cell-based.

From ChEMBL document CHEMBL2074128, “Cytotoxicity of antiviral nucleotides adefovir and cidofovir is induced by the expression of human renal organic anion transporter 1” (J Am Soc Nephrol, 2000) come the findings set out here.

B1: Solute carrier family 22 member 6 (Homo sapiens) (protein)
chain: MAFNDLLQQVGGVGRFQQIQVTLVVLPLLLMASHNTLQNFTAAIPTHHCRPPADANLSKNGGLEVWLPRDRQGQPESCLRFTSPQWGLPFLNGTEANGTGATEPCTDGWIYDNSTFPSTIVTEWDLVCSHRALRQLAQSLYMVGVLLGAMVFGYLADRLGRRKVLILNYLQTAVSGTCAAFAPNFPIYCAFRLLSGMALAGISLNCMTLNVEWMPIHTRACVGTLIGYVYSLGQFLLAGVAYAVPHWRHLQLLVSAPFFAFFIYSWFFIESARWHSSSGRLDLTLRALQRVARINGKREEGAKLSMEVLRASLQKELTMGKGQASAMELLRCPTLRHLFLCLSMLWFATSFAYYGLVMDLQGFGVSIYLIQVIFGAVDLPAKLVGFLVINSLGRRPAQMAALLLAGICILLNGVIPQDQSIVRTSLAVLGKGCLAASFNCIFLYTGELYPTMIRQTGMGMGSTMARVGSIVSPLVSMTAELYPSMPLFIYGAVPVAASAVTVLLPETLGQPLPDTVQDLESRWAPTQKEAGIYPRKGKQTRQQQEHQKYMVPLQASAQEKNGL
For the protein B1, the Michaelis constant (Km) came to 58 µM in data set [1] and 23.8 µM in data set [2].
